Results published in US9206411B2, “Staphylococcal Phage2638A endolysin amidase domain is lytic for Staphylococcus aureus” (priority 2012, dated 2015).

Columns and labels:
S. aureus NRS 383 (MRSA) = assay: Plate lysis, susceptibility of strains to 2638A (Table 1); assay type: cell-based; parameters: key to Susceptibility to lysis by 2638A, day 1: − = >100 pmol; (+) = very faint lysis zone; + = 100 pmol; ++ = 10 pmol; +++ = 1 pmol
Procedure: (§1) Purified proteins for each construct were diluted in sterile nickel column elution buffer, and 6 μL of lysostaphin (11 μg) or the constructs (0.2 nmoles or ˜11 μg for the repaired construct 2638A 1-180Mut-486) was spotted onto a freshly spread lawn of S. aureus strain NRS119 (SA LinR #12; linezolid resistant) growing cells that had air dried for 30 min on tryptic soy agar (TSA) plates. L=[…] Lysostaphin (Sigma); Spot 1=11 μg; all other constructs are 0.2 nmoles (˜11 μg for the repaired construct 2638A 1-180Mut-486) […]. The spotted plates were air dried for 10 min in a laminar flow hood and incubated overnight in a 37° C. environment. Scoring of the cleared spots occurred within 20 h of plating the cells.
(§2) The Plate Lysis assay results (FIG. 3) agree with the turbidity reduction assay. Each of the M23 peptidase dependent or SH3b-truncating constructs showing weak activity on S. aureus strain Newman strain. In addition to the Plate Lysis results in FIG. 3, we have also examined numerous strains with reduced but real lytic activity (Table 1). However, the plate lysis results with the 2638A endolysin constructs are extremely novel in appearance. Plate lysis results are routinely visualized as a discrete cleared spot on a lawn of bacteria after a single overnight of culture. […] In contrast, the 2638A endolysin is unique in that sometimes this cleared zone requires multiple days to appear. […] Thus, there is also a likelihood that the enzyme might work preferentially on late log or stationary phase cells in the plate lysis assay, as the 3 day old culture is likely not growing as quickly as the freshly-plated overnight culture.

S. aureus MN8 ΔsarA = assay: as above; assay type: cell-based; parameters: key to Susceptibility to lysis by 2638A, day 1: − = >100 pmol; (+) = very faint lysis zone; + = 100 pmol; ++ = 10 pmol; +++ = 1 pmol
Procedure: as §1, §2

S. aureus Tanji 21 = assay: as above; assay type: cell-based; parameters: key to Susceptibility to lysis by 2638A, day 3+: − = >100 pmol; (+) = very faint lysis zone; + = 100 pmol; ++ = 10 pmol; +++ = 1 pmol
Procedure: as §1, §2

S. simulans = assay: as above; assay type: cell-based; parameters: key to Susceptibility to lysis by 2638A, day 3+: − = >100 pmol; (+) = very faint lysis zone; + = 100 pmol; ++ = 10 pmol; +++ = 1 pmol
Procedure: as §1, §2

S. aureus NRS 384 (MRSA) = assay: as above; assay type: cell-based; parameters: key to Susceptibility to lysis by 2638A, day 3+: − = >100 pmol; (+) = very faint lysis zone; + = 100 pmol; ++ = 10 pmol; +++ = 1 pmol
Procedure: as §1, §2

S. aureus Tanji 47 = assay: as above; assay type: cell-based; parameters: key to Susceptibility to lysis by 2638A, day 3+: − = >100 pmol; (+) = very faint lysis zone; + = 100 pmol; ++ = 10 pmol; +++ = 1 pmol
Procedure: as §1, §2

S. aureus Tanji 29 = assay: as above; assay type: cell-based; parameters: key: − = >100 pmol; (+) = very faint lysis zone; + = 100 pmol; ++ = 10 pmol; +++ = 1 pmol
Procedure: as §1
The Plate Lysis assay results (FIG. 3) agree with the turbidity reduction assay. Each of the M23 peptidase dependent or SH3b-truncating constructs showing weak activity on S. aureus strain Newman strain. In addition to the Plate Lysis results in FIG. 3, we have also examined numerous strains with reduced but real lytic activity (Table 1). However, the plate lysis results with the 2638A endolysin constructs are extremely novel in appearance. Plate lysis results are routinely visualized as a discrete cleared spot on a lawn of bacteria after a single overnight of culture. […]

S. aureus Tanji 3 = assay: as above; assay type: cell-based
Procedure: as §1, §2

S. aureus ANG 133 = assay: as above; assay type: cell-based
Procedure: as §1, §2

S. aureus Tanji 9 = assay: as above; assay type: cell-based
Procedure: as §1, §2

S. aureus ALC 1342 = assay: as above; assay type: cell-based
Procedure: as §1, §2

S. aureus MN8 Δica = assay: as above; assay type: cell-based
Procedure: as §1, §2

S. aureus ANG 144 = assay: as above; assay type: cell-based
Procedure: as §1, §2

S. aureus Tanji 49 = assay: as above; assay type: cell-based
Procedure: as §1, §2

S. aureus Newman ΔtagO = assay: as above; assay type: cell-based
Procedure: as §1, §2

S. aureus Reynolds (CP8) = assay: as above; assay type: cell-based
Procedure: as §1, §2

S. aureus Newman Δica = assay: as above; assay type: cell-based
Procedure: as §1, §2

S. aureus Newman = assay: as above; assay type: cell-based
Procedure: as §1, §2

S. aureus Tanji 26 = assay: as above; assay type: cell-based
Procedure: as §1, §2

S. aureus Reynolds (CP5) = assay: as above; assay type: cell-based
Procedure: as §1, §2

S. aureus Tanji 33 = assay: as above; assay type: cell-based
Procedure: as §1, §2

S. aureus Tanji 28 = assay: as above; assay type: cell-based
Procedure: as §1, §2

MRSA strain NRS382 = assay: Control of systemic MRSA infection in a murine model; assay type: in vivo, Staphylococcus aureus

B1: 2638A Endolysin: 486 amino acid staphylococcal phage 2638A endolysin (SEQ ID NO:4), C-terminally 6×His-tagged; M23 peptidase, amidase, SH3b domains (protein)
chain: MLTAIDYLTKKGWKISSDPRTYDGYPKNYGYRNYHENGINYDEFCGGYHRAFDVYSNETNDVPAVTSGTVIEANDYGNFGGTFVIRDANDNDWIYGHLQRGSMRFVVGDKVNQGDIIGLQGNSNYYDNPMSVHLHLQLRPKDAKKDEKSQVCSGLAMEKYDITNLNAKQDKSKNGSVKELKHIYSNHIKGNKITAPKPSIQGVVIHNDYGSMTPSQYLPWLYARENNGTHVNGWASVYANRNEVLWYHPTDYVEWHCGNQWANANLIGFEVCESYPGRISDKLFLENEEATLKVAADVMKSYGLPVNRNTVRLHNEFFGTSCPHRSWDLHVGKGEPYTTTNINKMKDYFIKRIKHYYDGGKLEVSKAATIKQSDVKQEVKKQEAKQIVKATDWKQNKDGIWYKAEHASFTVTAPEGIITRYKGPWTGHPQAGVLQKGQTIKYDEVQKFDGHVWVSWETFEGETVYMPVRTWDAKTGKVGKLWGEIKLEHHHHHH
modifications: C-terminal His6 tag; Mutated Phage 2638a
notes: M23 peptidase, amidase, SH3b domains
Q: B1 was tested. Which “Susceptibility to lysis by 2638A, day 1” value (S. aureus NRS 383 (MRSA); day 1) did it give?
A: (+)

Q: What about the “Susceptibility to lysis by 2638A, day 3+” value (S. aureus NRS 383 (MRSA); day 3+) of the same molecule?
A: ++ (++ = 10 pmol)

Q: What about the “Susceptibility to lysis by 2638A, day 1” value (S. aureus MN8 ΔsarA; day 1) of the same molecule?
A: (+)

Q: And the “Susceptibility to lysis by 2638A, day 3+” value (S. aureus MN8 ΔsarA; day 3+)?
A: +++ (+++ = 1 pmol)

Q: What about the “Susceptibility to lysis by 2638A, day 1” value (S. aureus Tanji 21; day 1) of the same molecule?
A: − (− = >100 pmol)

Q: And the “Susceptibility to lysis by 2638A, day 3+” value (S. aureus Tanji 21; day 3+)?
A: (+)

Q: And the “Susceptibility to lysis by 2638A, day 1” value (S. simulans; day 1)?
A: − (− = >100 pmol)

Q: What about the “Susceptibility to lysis by 2638A, day 3+” value (S. simulans; day 3+) of the same molecule?
A: (+)

Q: What about the “Susceptibility to lysis by 2638A, day 1” value (S. aureus NRS 384 (MRSA); day 1) of the same molecule?
A: − (− = >100 pmol)

Q: What about the “Susceptibility to lysis by 2638A, day 3+” value (S. aureus NRS 384 (MRSA); day 3+) of the same molecule?
A: (+)

Q: What about the “Susceptibility to lysis by 2638A, day 1” value (S. aureus Tanji 47; day 1) of the same molecule?
A: − (− = >100 pmol)

Q: What about the “Susceptibility to lysis by 2638A, day 3+” value (S. aureus Tanji 47; day 3+) of the same molecule?
A: (+)

Q: What about the “Susceptibility to lysis by 2638A, day 1” value (S. aureus Tanji 29) of the same molecule?
A: (+)

Q: And the “Susceptibility to lysis by 2638A, day 1” value (S. aureus Tanji 3; day 1)?
A: − (− = >100 pmol)

Q: What about the “Susceptibility to lysis by 2638A, day 3+” value (S. aureus Tanji 3; day 3+) of the same molecule?
A: − (− = >100 pmol)

Q: And the “Susceptibility to lysis by 2638A, day 1” value (S. aureus ANG 133; day 1)?
A: − (− = >100 pmol)

Q: What about the “Susceptibility to lysis by 2638A, day 3+” value (S. aureus ANG 133; day 3+) of the same molecule?
A: − (− = >100 pmol)

Q: And the “Susceptibility to lysis by 2638A, day 1” value (S. aureus Tanji 9; day 1)?
A: − (− = >100 pmol)

Q: What about the “Susceptibility to lysis by 2638A, day 3+” value (S. aureus Tanji 9; day 3+) of the same molecule?
A: − (− = >100 pmol)

Q: What about the “Susceptibility to lysis by 2638A, day 1” value (S. aureus ALC 1342; day 1) of the same molecule?
A: − (− = >100 pmol)

Q: And the “Susceptibility to lysis by 2638A, day 3+” value (S. aureus ALC 1342; day 3+)?
A: − (− = >100 pmol)

Q: And the “Susceptibility to lysis by 2638A, day 1” value (S. aureus MN8 Δica; day 1)?
A: − (− = >100 pmol)

Q: And the “Susceptibility to lysis by 2638A, day 3+” value (S. aureus MN8 Δica; day 3+)?
A: ++ (++ = 10 pmol)

Q: What about the “Susceptibility to lysis by 2638A, day 1” value (S. aureus ANG 144; day 1) of the same molecule?
A: − (− = >100 pmol)

Q: And the “Susceptibility to lysis by 2638A, day 3+” value (S. aureus ANG 144; day 3+)?
A: − (− = >100 pmol)

Q: And the “Susceptibility to lysis by 2638A, day 1” value (S. aureus Tanji 49)?
A: − (− = >100 pmol)

Q: And the “Susceptibility to lysis by 2638A, day 1” value (S. aureus Newman ΔtagO; day 1)?
A: +++ (+++ = 1 pmol)

Q: And the “Susceptibility to lysis by 2638A, day 3+” value (S. aureus Newman ΔtagO; day 3+)?
A: +++ (+++ = 1 pmol)

Q: And the “Susceptibility to lysis by 2638A, day 1” value (S. aureus Reynolds (CP8); day 1)?
A: − (− = >100 pmol)

Q: What about the “Susceptibility to lysis by 2638A, day 3+” value (S. aureus Reynolds (CP8); day 3+) of the same molecule?
A: − (− = >100 pmol)

Q: What about the “Susceptibility to lysis by 2638A, day 1” value (S. aureus Newman Δica; day 1) of the same molecule?
A: − (− = >100 pmol)

Q: What about the “Susceptibility to lysis by 2638A, day 3+” value (S. aureus Newman Δica; day 3+) of the same molecule?
A: − (− = >100 pmol)

Q: And the “Susceptibility to lysis by 2638A, day 1” value (S. aureus Newman; day 1)?
A: − (− = >100 pmol)

Q: What about the “Susceptibility to lysis by 2638A, day 3+” value (S. aureus Newman; day 3+) of the same molecule?
A: − (− = >100 pmol)

Q: What about the “Susceptibility to lysis by 2638A, day 1” value (S. aureus Tanji 26; day 1) of the same molecule?
A: − (− = >100 pmol)

Q: What about the “Susceptibility to lysis by 2638A, day 3+” value (S. aureus Tanji 26; day 3+) of the same molecule?
A: + (+ = 100 pmol)

Q: And the “Susceptibility to lysis by 2638A, day 1” value (S. aureus Reynolds (CP5); day 1)?
A: − (− = >100 pmol)

Q: What about the “Susceptibility to lysis by 2638A, day 3+” value (S. aureus Reynolds (CP5); day 3+) of the same molecule?
A: − (− = >100 pmol)

Q: And the “Susceptibility to lysis by 2638A, day 1” value (S. aureus Tanji 33; day 1)?
A: − (− = >100 pmol)

Q: And the “Susceptibility to lysis by 2638A, day 3+” value (S. aureus Tanji 33; day 3+)?
A: + (+ = 100 pmol)

Q: And the “Susceptibility to lysis by 2638A, day 1” value (S. aureus Tanji 28; day 1)?
A: − (− = >100 pmol)

Q: And the “Susceptibility to lysis by 2638A, day 3+” value (S. aureus Tanji 28; day 3+)?
A: − (− = >100 pmol)

Q: What about the “% Survival” value (MRSA strain NRS382; 0 hours, Balb/c mice, I.P. 4×10^7 CFU, treated 30 min post infection: 2638A 200 μg/mouse I.P., Vancomycin 375 μg/mouse s.c., Oxacillin 1250 μg/mouse s.c.) of the same molecule?
A: 100%

Q: And the “% Survival” value (MRSA strain NRS382; 4 hours, same model and doses)?
A: 100%

Q: And the “% Survival” value (MRSA strain NRS382; 8 hours, same model and doses)?
A: 100%

Q: And the “% Survival” value (MRSA strain NRS382; 12 hours, same model and doses)?
A: 100%

Q: What about the “% Survival” value (MRSA strain NRS382; 16 hours, same model and doses) of the same molecule?
A: 100%

Q: What about the “% Survival” value (MRSA strain NRS382; 20 hours, same model and doses) of the same molecule?
A: 100%

Q: And the “% Survival” value (MRSA strain NRS382; 24 hours, same model and doses)?
A: 100%

Q: What about the “% Survival” value (MRSA strain NRS382; 28 hours, same model and doses) of the same molecule?
A: 100%

Q: What about the “% Survival” value (MRSA strain NRS382; 32 hours, same model and doses) of the same molecule?
A: 100%

Q: What about the “% Survival” value (MRSA strain NRS382; 36 hours, same model and doses) of the same molecule?
A: 100%

Q: And the “% Survival” value (MRSA strain NRS382; 40 hours, same model and doses)?
A: 100%

Q: What about the “% Survival” value (MRSA strain NRS382; 44 hours, same model and doses) of the same molecule?
A: 100%

Q: What about the “% Survival” value (MRSA strain NRS382; 48 hours (end of the experiment), same model and doses) of the same molecule?
A: 100%

Q: And the “septicemia score at the end of the experiment” value (MRSA strain NRS382; 48 hours, score 0-5 per Table 4)?
A: 0

Q: And the “Mean NRS382 Titer in the Blood” value (MRSA strain NRS382; Recovered 48 hr post infection from surviving mice, same doses)?
A: 0.8 ± 1.9 × 10^1 CFU/ml
